Where two headings read alike, the source gives them in different places. One block for each binder: values may come before it. Square brackets hold non-standard residues; d marks the D form. Ends that are not written are not given here. * marks the point of attachment. NMeF = CN[C@@H](Cc1ccccc1)C(=O)O; NMeL = CN[C@@H](CC(C)C)C(=O)O; Octanoyl = CCCCCCCC(=O)*; Ava = NCCCCC(=O)O; Octyl = CCCCCCCC*
Experiments:
[1] = target: T1, rat GHS-R (GHS receptor) expressed on CHO-GHSR62 cells (rat, UniProt O08725 1-364); experiment: cell-based or functional assay
T1 sequence (O08725 whole entry): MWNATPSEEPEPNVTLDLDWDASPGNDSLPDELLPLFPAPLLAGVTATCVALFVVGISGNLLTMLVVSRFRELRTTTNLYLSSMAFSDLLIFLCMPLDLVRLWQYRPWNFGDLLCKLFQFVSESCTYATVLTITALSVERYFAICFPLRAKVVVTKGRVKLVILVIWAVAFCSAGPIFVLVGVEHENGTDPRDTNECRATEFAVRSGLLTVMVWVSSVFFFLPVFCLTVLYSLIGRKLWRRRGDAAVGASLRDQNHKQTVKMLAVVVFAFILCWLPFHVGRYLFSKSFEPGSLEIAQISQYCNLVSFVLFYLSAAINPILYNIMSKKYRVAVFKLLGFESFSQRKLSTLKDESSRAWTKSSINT

[2] = target: T1, rat GHS-R (GHS receptor) expressed on …; experiment: cell-based or functional assay; remark: listed apart in the source
[3] = target: T1, rat GHS-R (GHS receptor) expressed on …; experiment: cell-based or functional assay; remark: listed apart in the source
[4] = target: T1, rat GHS-R (GHS receptor) expressed on …; experiment: cell-based or functional assay; remark: listed apart in the source
[5] = target: T1, rat GHS-R (GHS receptor) expressed on …; experiment: cell-based or functional assay; remark: listed apart in the source
[6] = target: T1, rat GHS-R (GHS receptor) expressed on …; experiment: cell-based or functional assay; remark: listed apart in the source
[7] = target: T1, rat GHS-R (GHS receptor) expressed on …; experiment: cell-based or functional assay; remark: listed apart in the source
[8] = target: T1, rat GHS-R (GHS receptor) expressed on …; experiment: cell-based or functional assay; remark: listed apart in the source
[9] = target: T1, rat GHS-R (GHS receptor) expressed on …; experiment: cell-based or functional assay; remark: listed apart in the source
[10] = target: amino-terminal antibody (anti-[C-Cys]-rat ghrelin [1-11] antigen); experiment: radioimmunoassay: inhibition of binding of radioisotope-labeled rat ghrelin to the amino-terminal antibody

B1: [Lys^3(Octanoyl)]-hGhrelin (peptide)
peptide: GSK(Octanoyl)FLSPEHQRVQQRKESKKPPAKLQPR
- Activity EC50 [1]: 32 nM

B2: [Ser^3(Octyl)]-Ghrelin (1-7)-amide (peptide)
peptide: GSS(Octyl)FLSP-NH2
modifications: N-terminus assumed
SMILES: CCCCCCCCOC[C@H](NC(=O)[C@H](CO)NC(=O)CN)C(=O)N[C@@H](Cc1ccccc1)C(=O)N[C@@H](CC(C)C)C(=O)N[C@@H](CO)C(=O)N1CCC[C@H]1C(N)=O
- Ca-releasing activity EC50 [2]: 5.8 nM

B3: [Ser^3(Octyl),^DPhe^4]-Ghrelin (1-7)-amide (peptide)
peptide: GSS(Octyl)[dF]LSP-NH2
- Ca-releasing activity EC50 [2]: 2200 nM

B4: [N-Aminopentanoyl,Ser^3(Octyl),MePhe^4,MeLeu^5]-Ghrelin (3-5)-amide (peptide)
peptide: [Ava]S(Octyl)[NMeF][NMeL]-NH2
- EC50 [3]: 86 nM
- Activity EC50 [4]: 82 nM

B5: [Leu^2]-Ghrelin (1-7)-amide (peptide)
peptide: GLS(Octanoyl)FLSP-NH2
modifications: N-terminus assumed
SMILES: CCCCCCCC(=O)OC[C@H](NC(=O)[C@H](CC(C)C)NC(=O)CN)C(=O)N[C@@H](Cc1ccccc1)C(=O)N[C@@H](CC(C)C)C(=O)N[C@@H](CO)C(=O)N1CCC[C@H]1C(N)=O
- Ca-releasing activity EC50 [5]: 42 nM

B6: [N-Aminopentanoyl]-Ghrelin (3-7)-amide (peptide)
peptide: [Ava]S(Octanoyl)FLSP-NH2
modifications: N-terminus assumed
SMILES: CCCCCCCC(=O)OC[C@H](NC(=O)CCCCN)C(=O)N[C@@H](Cc1ccccc1)C(=O)N[C@@H](CC(C)C)C(=O)N[C@@H](CO)C(=O)N1CCC[C@H]1C(N)=O
- Ca-releasing activity EC50 [5]: 3.4 nM

B8: [N-Acetyl]-Ghrelin (1-10) (peptide)
peptide: Ac-GSS(Octanoyl)FLSPEHQ
- Ca-releasing activity EC50 [5]: > 10000 nM

B10: Ghrelin (16-28) (peptide)
peptide: KESKKPPAKLQPR
modifications: not fully specified
- Ca-releasing activity EC50 [6]: > 10000 nM
- Ca-releasing activity (EC50, nM) [7]: > 10000 nM

Further lines, results first:

- Ca-releasing activity EC50 [2]: > 10000 nM
B7: [^DSer^3(Octyl)]-Ghrelin (1-7)-amide (peptide)
peptide: GS[dS](Octyl)FLSP-NH2

- Ca-releasing activity EC50 [2]: > 10000 nM
B9: [^DSer^3(Octyl),^DPhe^4]-Ghrelin (1-7)-amide (peptide)
peptide: GS[dS](Octyl)[dF]LSP-NH2

- Ca-releasing activity EC50 [6]: 1.5 nM
- Ca-releasing activity (EC50, nM) [7]: 2.8 nM
B11: rat ghrelin-27 (peptide)
peptide: GSS(Octanoyl)FLSPEHQKAQRKESKKPPAKLQPR

- Ca-releasing activity EC50 [3]: 2.5 nM
- EC50 value [8]: 1.5 nM
- Ca-releasing activity EC50 [9]: 1.5 nM
- cross-reactivity [10]: 100%
B12: rat ghrelin (peptide)
peptide: GSS(Octanoyl)FLSPEHQKAQQRKESKKPPAKLQPR

— patent US20090170763A1 (KENJI KANGAWA, published 2009)
